Data taken from publication PMC9404779, “Oxidative Implications of Substituting a Conserved Cysteine Residue in Sugar Beet Phytoglobin BvPgb 1.2” (Antioxidants, 2022).
Where a name gives a salt, the structure may show the parent alone.

Key:
BvPgb1.2 = target: T1, BvPgb1.2 (Beta vulgaris, UniProt V5QR23); assay: peroxidase assay, absorbance of ABTS radical cation at […] nm; format: biochemical; conditions: 10 mM H2O2, 5 mM ABTS, 50 mM Tris-HCl pH 8.5; protein incubated at 22 or 37 °C
T1 construct: gene Bv9_224250_aayd.t2; recombinant from E. coli BL21(DE3), pET-DEST42

[1] = target: BvPgb1.2 Cys86Ala mutant (Beta vulgaris (sugar beet)); assay: SEC; analytical SEC, Superdex 75 10/300 GL, 50 mM NaP with 150 mM NaCl pH 7.0, 100 µL of 1 mg/mL protein; MW from retention volume on a calibration curve; dimer of monomers
[2] = target: Wildtype (WT) BvPgb1.2, Class 1 phytoglobin from sugar beet (Beta vulgaris) (Beta vulgaris (sugar beet)); assay: as above

T1 sequence (V5QR23 1-171): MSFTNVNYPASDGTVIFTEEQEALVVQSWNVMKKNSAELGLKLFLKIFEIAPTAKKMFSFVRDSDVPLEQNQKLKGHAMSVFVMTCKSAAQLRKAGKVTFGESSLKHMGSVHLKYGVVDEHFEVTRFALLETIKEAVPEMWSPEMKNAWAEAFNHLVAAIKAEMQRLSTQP

CCn1c(=NN=c2sc3cc(S(=O)(=O)O)ccc3n2CC)sc2cc(S(=O)(=O)O)ccc21 [2,2′-azino-di-(3-ethylbenzthiazolinesulfonic acid) diammonium salt]
peroxidase assay, absorbance of ABTS radical cation at 415 nm (BvPgb1.2): The detectable radical formation of ABTS was used in this study to quantify this

BvPgb1.2 Cys86Ala mutant (natural protein)
degree of dimerization [1]: > 99%
stoichiometry N [1]: 2

Wildtype (WT) BvPgb1.2, Class 1 phytoglobin from sugar beet (Beta vulgaris) (natural protein)
degree of dimerization [2]: > 99%
stoichiometry N [2]: 2
